Data taken from the supplement of paper PMC10567573.

B1: TSN (parent)
chain: AFVVYLETETLVTREAVTEILGIE
B2: MGC27345 (parent)
chain: KYMPHLCQDSSGEVSCQCQLHPPR

Variants of: B1
Experiment: protein stability index of a GFP-peptide fusion (GPS, HEK-293T) (PSI 1-6); higher = more stable
Settings: c terminus: a fixed tail appended
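Note: lentivirally expressed fusions sorted by FACS into six bins by GFP to DsRed ratio, PSI derived from sequencing read proportions per bin multiplied by bin number.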

With AFVVYLETETLVTREAVTEILGFE [I23F] as the variant, how does the protein stability index read?
Its protein stability index is 2.36.

With AFVVYLETETLVTREAVTEILGHE [I23H] as the variant, how does the protein stability index read?
Its protein stability index is 2.75.

Which protein stability index does the source give for AFVVYLETETLVTREAVTEILGKE [I23K] here?
The protein stability index was 1.55.

Which protein stability index does the source give for AFVVYLETETLVTREAVTEILGLE [I23L] here?
Its protein stability index is 2.26.

Which protein stability index does the source give for AFVVYLETETLVTREAVTEILGNE [I23N] here?
Its protein stability index is 3.34.

Which protein stability index does the source give for AFVVYLETETLVTREAVTEILGQE [I23Q] here?
Its protein stability index is 1.69.

For AFVVYLETETLVTREAVTEILGTE [I23T], which protein stability index is on record?
Its protein stability index is 1.79.

Which protein stability index does the source give for AFVVYLETETLVTREAVTEILGVE [I23V] here?
Its protein stability index is 3.69.

With AFVVYLETETLVTREAVTEILGWE [I23W] as the variant, how does the protein stability index read?
Its protein stability index is 1.79.

For AFVVYLETETLVTREAVTEILGYE [I23Y], which protein stability index is on record?
Its protein stability index is 3.36.

For AFVVYLETETLVTREAVTEILGIA [E24A], which protein stability index is on record?
The protein stability index was 3.43.

Which protein stability index does the source give for AFVVYLETETLVTREAVTEILGIC [E24C] here?
The protein stability index was 3.31.

With AFVVYLETETLVTREAVTEILGID [E24D] as the variant, how does the protein stability index read?
The protein stability index was 2.34.

Which protein stability index does the source give for AFVVYLETETLVTREAVTEILGIF [E24F] here?
The protein stability index was 2.03.

For AFVVYLETETLVTREAVTEILGIG [E24G], which protein stability index is on record?
Its protein stability index is 2.84.

With AFVVYLETETLVTREAVTEILGII [E24I] as the variant, how does the protein stability index read?
The protein stability index was 3.19.

With AFVVYLETETLVTREAVTEILGIK [E24K] as the variant, how does the protein stability index read?
The protein stability index was 3.34.

For AFVVYLETETLVTREAVTEILGIL [E24L], which protein stability index is on record?
Its protein stability index is 3.3.

With AFVVYLETETLVTREAVTEILGIQ [E24Q] as the variant, how does the protein stability index read?
The protein stability index was 3.13.

For AFVVYLETETLVTREAVTEILGIR [E24R], which protein stability index is on record?
The protein stability index was 2.27.

For AFVVYLETETLVTREAVTEILGIS [E24S], which protein stability index is on record?
The protein stability index was 2.53.

For AFVVYLETETLVTREAVTEILGIV [E24V], which protein stability index is on record?
Its protein stability index is 2.23.

Which protein stability index does the source give for AFVVYLETETLVTREAVTEILGIW [E24W] here?
Its protein stability index is 1.53.

Variants of: B2
Experiment: as above
Settings: c terminus: a fixed tail appended

For KYMPHLCQDSSGEVSCQDQLHPPR [C18D], which protein stability index is on record?
The protein stability index was 3.65.

Which protein stability index does the source give for KYMPHLGQDSSGEVSCQCQLHPPR [C7G] here?
Its protein stability index is 3.13.

For KYMPHLCQWSSGEVSCQCQLHPPR [D9W], which protein stability index is on record?
Its protein stability index is 1.52.

With KYMPHLCQDSSGEVSIQCQLHPPR [C16I] as the variant, how does the protein stability index read?
Its protein stability index is 1.93.

Which protein stability index does the source give for KYMGHLCQDSSGEVSCQCQLHPPR [P4G] here?
Its protein stability index is 1.62.

Which protein stability index does the source give for KYMPHLCQDSSGEVSCQCQLHPPM [R24M] here?
Its protein stability index is 3.31.

With KYMPHLCQDSSGEVSCQCQGHPPR [L20G] as the variant, how does the protein stability index read?
The protein stability index was 1.85.

For KYMWHLCQDSSGEVSCQCQLHPPR [P4W], which protein stability index is on record?
Its protein stability index is 1.67.

With KIMPHLCQDSSGEVSCQCQLHPPR [Y2I] as the variant, how does the protein stability index read?
Its protein stability index is 3.1.

With KYMPHLCQISSGEVSCQCQLHPPR [D9I] as the variant, how does the protein stability index read?
Its protein stability index is 1.51.

For KYMPRLCQDSSGEVSCQCQLHPPR [H5R], which protein stability index is on record?
The protein stability index was 2.57.

Which protein stability index does the source give for KYMPHLCQDSSGEVSCQCQLHPSR [P23S] here?
The protein stability index was 2.47.

Which protein stability index does the source give for KYMPYLCQDSSGEVSCQCQLHPPR [H5Y] here?
The protein stability index was 1.98.

Which protein stability index does the source give for KYMPHLCQDSSGEVSCQCQLFPPR [H21F] here?
The protein stability index was 1.63.

For KYMPHLCQPSSGEVSCQCQLHPPR [D9P], which protein stability index is on record?
The protein stability index was 1.42.

For FYMPHLCQDSSGEVSCQCQLHPPR [K1F], which protein stability index is on record?
The protein stability index was 1.6.

With KYMPHLCQDSSGEVSCQCWLHPPR [Q19W] as the variant, how does the protein stability index read?
Its protein stability index is 2.48.

For KYIPHLCQDSSGEVSCQCQLHPPR [M3I], which protein stability index is on record?
Its protein stability index is 2.01.

With KYMPHYCQDSSGEVSCQCQLHPPR [L6Y] as the variant, how does the protein stability index read?
The protein stability index was 1.96.

For KYMPHLCQDSSGETSCQCQLHPPR [V14T], which protein stability index is on record?
The protein stability index was 2.87.

Which protein stability index does the source give for KYMPHLCQDSSGEVSAQCQLHPPR [C16A] here?
The protein stability index was 3.38.

For KYGPHLCQDSSGEVSCQCQLHPPR [M3G], which protein stability index is on record?
The protein stability index was 2.1.

Which protein stability index does the source give for KYMPHLCWDSSGEVSCQCQLHPPR [Q8W] here?
The protein stability index was 2.65.

With KDMPHLCQDSSGEVSCQCQLHPPR [Y2D] as the variant, how does the protein stability index read?
The protein stability index was 2.4.

Which protein stability index does the source give for KYMPHLCQDSSGEVSCQCQLRPPR [H21R] here?
Its protein stability index is 1.69.

With KYMPHVCQDSSGEVSCQCQLHPPR [L6V] as the variant, how does the protein stability index read?
The protein stability index was 2.65.

Which protein stability index does the source give for KYMCHLCQDSSGEVSCQCQLHPPR [P4C] here?
Its protein stability index is 3.23.

With KYMPHLCQDSSGEVSCQCQLYPPR [H21Y] as the variant, how does the protein stability index read?
The protein stability index was 2.06.

Which protein stability index does the source give for KYMPHLCQTSSGEVSCQCQLHPPR [D9T] here?
Its protein stability index is 2.14.

For KYMNHLCQDSSGEVSCQCQLHPPR [P4N], which protein stability index is on record?
Its protein stability index is 1.78.

For KYMPHLCQDSSGEISCQCQLHPPR [V14I], which protein stability index is on record?
The protein stability index was 2.48.

For KYMPHLCVDSSGEVSCQCQLHPPR [Q8V], which protein stability index is on record?
The protein stability index was 2.73.

With KYMPHLCQDSSGEVSTQCQLHPPR [C16T] as the variant, how does the protein stability index read?
The protein stability index was 2.96.

Which protein stability index does the source give for KYMPHLCQDSSGERSCQCQLHPPR [V14R] here?
Its protein stability index is 2.24.

Which protein stability index does the source give for KYMPHLCQLSSGEVSCQCQLHPPR [D9L] here?
Its protein stability index is 2.18.

Which protein stability index does the source give for KYMPHLCQDSSGEVVCQCQLHPPR [S15V] here?
Its protein stability index is 2.48.

Which protein stability index does the source give for KYMHHLCQDSSGEVSCQCQLHPPR [P4H] here?
Its protein stability index is 1.69.

For KYMPHLCQDSSGLVSCQCQLHPPR [E13L], which protein stability index is on record?
The protein stability index was 2.07.

For KYMPHLCQDSSGEVSRQCQLHPPR [C16R], which protein stability index is on record?
Its protein stability index is 3.1.

With KSMPHLCQDSSGEVSCQCQLHPPR [Y2S] as the variant, how does the protein stability index read?
The protein stability index was 2.33.

With KYMPHLCQDSSGEVSCQCQLHPAR [P23A] as the variant, how does the protein stability index read?
Its protein stability index is 2.34.

For KTMPHLCQDSSGEVSCQCQLHPPR [Y2T], which protein stability index is on record?
The protein stability index was 2.3.

For KYMPHLCQDSSGEVSCQCSLHPPR [Q19S], which protein stability index is on record?
Its protein stability index is 2.5.

For SYMPHLCQDSSGEVSCQCQLHPPR [K1S], which protein stability index is on record?
The protein stability index was 2.65.

With KYMPDLCQDSSGEVSCQCQLHPPR [H5D] as the variant, how does the protein stability index read?
The protein stability index was 1.66.

For KYMPHLCQDSDGEVSCQCQLHPPR [S11D], which protein stability index is on record?
The protein stability index was 2.13.

Which protein stability index does the source give for IYMPHLCQDSSGEVSCQCQLHPPR [K1I] here?
Its protein stability index is 1.98.

Which protein stability index does the source give for KYMPHLCQDSSGEVTCQCQLHPPR [S15T] here?
Its protein stability index is 1.41.

Which protein stability index does the source give for KYMPHLCQDSSGEVSCQCQLHPPL [R24L] here?
Its protein stability index is 3.85.

For KYMFHLCQDSSGEVSCQCQLHPPR [P4F], which protein stability index is on record?
The protein stability index was 1.75.

With KYMPHLCQDSSGEVSCQCQHHPPR [L20H] as the variant, how does the protein stability index read?
The protein stability index was 3.1.

Which protein stability index does the source give for KYMPHICQDSSGEVSCQCQLHPPR [L6I] here?
Its protein stability index is 2.23.

With KYMPMLCQDSSGEVSCQCQLHPPR [H5M] as the variant, how does the protein stability index read?
Its protein stability index is 2.15.

Which protein stability index does the source give for KYMPHLCIDSSGEVSCQCQLHPPR [Q8I] here?
The protein stability index was 2.38.

With PYMPHLCQDSSGEVSCQCQLHPPR [K1P] as the variant, how does the protein stability index read?
Its protein stability index is 2.16.

With LYMPHLCQDSSGEVSCQCQLHPPR [K1L] as the variant, how does the protein stability index read?
The protein stability index was 2.48.

For KYQPHLCQDSSGEVSCQCQLHPPR [M3Q], which protein stability index is on record?
The protein stability index was 1.05.

For KYMPHLCQDSSGEVSCCCQLHPPR [Q17C], which protein stability index is on record?
Its protein stability index is 2.32.

Which protein stability index does the source give for KYMPHLCQDSSGEVSCQCQLPPPR [H21P] here?
The protein stability index was 3.07.

For KYMPHLCQDSSGEVSCQCFLHPPR [Q19F], which protein stability index is on record?
Its protein stability index is 2.71.

Which protein stability index does the source give for KYMPHLCQDSSGEVWCQCQLHPPR [S15W] here?
The protein stability index was 1.02.

Which protein stability index does the source give for KYMPVLCQDSSGEVSCQCQLHPPR [H5V] here?
Its protein stability index is 2.22.

For KYMPHLMQDSSGEVSCQCQLHPPR [C7M], which protein stability index is on record?
The protein stability index was 2.11.

With KYMPHLCQDSSGEVSCQCQLHPPI [R24I] as the variant, how does the protein stability index read?
Its protein stability index is 3.75.

With KYMPCLCQDSSGEVSCQCQLHPPR [H5C] as the variant, how does the protein stability index read?
Its protein stability index is 2.92.

Which protein stability index does the source give for KYMPHLCQDESGEVSCQCQLHPPR [S10E] here?
Its protein stability index is 2.57.

Which protein stability index does the source give for KYMPHLCQDISGEVSCQCQLHPPR [S10I] here?
The protein stability index was 2.63.

For KYMPHLCQDSSGSVSCQCQLHPPR [E13S], which protein stability index is on record?
The protein stability index was 2.26.

Which protein stability index does the source give for KYMPHLYQDSSGEVSCQCQLHPPR [C7Y] here?
The protein stability index was 1.63.

For KYMPHLCQDSSGEVSCQCQLHTPR [P22T], which protein stability index is on record?
The protein stability index was 2.49.

With KYMPHLCQDSSGEVSCQCQLHPYR [P23Y] as the variant, how does the protein stability index read?
Its protein stability index is 2.07.
